Test results: patent publication US20030022833A1 (GREENVILLE HOSPITAL SYSTEM, published 2003)
Where “and” joins values, the source holds several entries; their conditions need not be identical. Equal values may be shown once.

T1: human prolactin receptor (human, UniProt P16471 25-622)
T1 sequence (looked up): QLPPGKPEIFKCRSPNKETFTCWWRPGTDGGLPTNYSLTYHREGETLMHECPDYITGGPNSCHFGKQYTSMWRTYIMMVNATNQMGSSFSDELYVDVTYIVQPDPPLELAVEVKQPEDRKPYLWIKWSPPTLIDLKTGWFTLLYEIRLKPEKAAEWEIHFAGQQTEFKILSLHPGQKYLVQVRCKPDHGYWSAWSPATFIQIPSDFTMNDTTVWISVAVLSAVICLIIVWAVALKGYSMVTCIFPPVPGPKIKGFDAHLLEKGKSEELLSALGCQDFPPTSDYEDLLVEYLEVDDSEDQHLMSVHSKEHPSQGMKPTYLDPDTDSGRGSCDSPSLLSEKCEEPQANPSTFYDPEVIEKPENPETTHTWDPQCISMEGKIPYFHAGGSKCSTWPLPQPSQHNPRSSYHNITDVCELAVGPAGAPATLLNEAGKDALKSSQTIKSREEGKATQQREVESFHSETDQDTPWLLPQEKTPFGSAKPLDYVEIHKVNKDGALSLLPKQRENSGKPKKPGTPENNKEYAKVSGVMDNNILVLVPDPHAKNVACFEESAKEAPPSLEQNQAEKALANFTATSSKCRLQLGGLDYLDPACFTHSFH

B1: human prolactin (ligand, UniProt P01236 29-227, looked up)
chain: LPICPGGAARCQVTLRDLFDRAVVLSHYIHNLSSEMFSEFDKRYTHGRGFITKAINSCHTSSLATPEDKEQAQQMNQKDFLSLIVSILRSWNEPLYHLVTEVRGMQEAPEAILSKAVEIEEQTKRLLEGMELIVSQVHPETKENEIYPVWSGLPSLQMADEESRLSAYYNLLHCLRRDSHKIDNYLKLLKCRIIHNNNC

Target: T1, human prolactin receptor
Assay: cell-based or functional assay

Molecule | T47-D cell proliferation (96 well MTS assay) (molar ratio hPRL-G129R:hPRL) | apoptosis (DNA fragmentation, TUNEL assay) in T-47D cells | tyrosine phosphorylation of STAT proteins in T47-D cells (anti-phosphotyrosine immunoblot) (ratio hPRL-G129R:hPRL)
G129R variant of human prolactin (from UniProt P01236 29-227) (ligand) | 1 and 2 | 1 | 5
B1 |  | 4 ratio hPRL:G129R | 
